Assay results reported in US12303551B2, “Cellular immunotherapy compositions and uses thereof” (CERO THERPEUTICS HOLDINGS, INC., priority 2018, dated 2025).

B1: CER27: Chimeric engulfment receptor: Tim4 binding, Tim4 transmembrane, TLR2 signaling; SEQ ID NO: 98 (protein)
chain: MSKGLLLLWLVTELWWLYLTPAASEDTIIGFLGQPVTLPCHYLSWSQSRNSMCWGKGSCPNSKCNAELLRTDGTRIISRKSTKYTLLGKVQFGEVSLTISNTNRGDSGVYCCRIEVPGWFNDVKKNVRLELRRATTTKKPTTTTRPTTTPYVTTTTPELLPTTVMTTSVLPTTTPPQTLATTAFSTAVTTCPSTTPGSFSQETTKGSAFTTESETLPASNHSQRSMMTISTDIAVLRPTGSNPGILPSTSQLTTQKTTLTTSESLQKTTKSHQINSRQTILIIACCVGFVLMVLLFLAFLHRFHGLWYMKMMWAWLQAKRKPRKAPSRNICYDAFVSYSERDAYWVENLMVQELENFNPPFKLCLHKRDFIPGKWIIDNIIDSIEKSHKTVFVLSENFVKSEWCKYELDFSHFRLFDENNDAAILILLEPIEKKAIPQRFCKLRKIMNTKTYLEWPMDEAQREGFWVNLRAAIKS
modifications: CER27, amino acids 1-22 are signal peptide
B2: CER103B: Chimeric engulfment receptor: Tim4 binding, Tim4 transmembrane, TLR8 and CD79b (185-213) signaling; SEQ ID NO: 138 (protein)
chain: MSKGLLLLWLVTELWWLYLTPAASEDTIIGFLGQPVTLPCHYLSWSQSRNSMCWGKGSCPNSKCNAELLRTDGTRIISRKSTKYTLLGKVQFGEVSLTISNTNRGDSGVYCCRIEVPGWFNDVKKNVRLELRRATTTKKPTTTTRPTTTPYVTTTTPELLPTTVMTTSVLPTTTPPQTLATTAFSTAVTTCPSTTPGSFSQETTKGSAFTTESETLPASNHSQRSMMTISTDIAVLRPTGSNPGILPSTSQLTTQKTTLTTSESLQKTTKSHQINSRQTILIIACCVGFVLMVLLFLAFLHHLFYWDVWFIYNVCLAKVKGYRSLSTSQTFYDAYISYDTKDASVTDWVINELRYHLEESRDKNVLLCLEERDWDPGLAIIDNLMQSINQSKKTVFVLTKKYAKSWNFKTAFYLALQRLMDENMDVIIFILLEPVLQHSQYLRLRQRICKSSILQWPDNPKAEGLFWQTLRNVVLTENDSRYNNMYVDSIKQYDSKAGMEEDHTYEGLDIDQTATYEDIVTL
modifications: CER103B, amino acids 1-22 are signal peptide
B3: CER106: Chimeric engulfment receptor: Tim4 binding, Tim4 transmembrane, NFAM1 and TLR8 signaling; SEQ ID NO: 141 (protein)
chain: MSKGLLLLWLVTELWWLYLTPAASEDTIIGFLGQPVTLPCHYLSWSQSRNSMCWGKGSCPNSKCNAELLRTDGTRIISRKSTKYTLLGKVQFGEVSLTISNTNRGDSGVYCCRIEVPGWFNDVKKNVRLELRRATTTKKPTTTTRPTTTPYVTTTTPELLPTTVMTTSVLPTTTPPQTLATTAFSTAVTTCPSTTPGSFSQETTKGSAFTTESETLPASNHSQRSMMTISTDIAVLRPTGSNPGILPSTSQLTTQKTTLTTSESLQKTTKSHQINSRQTILIIACCVGFVLMVLLFLAFLLWNKKRMRGPGKDPTRKCPDPRSASSPKQHPSESVYTALQRRETEVYACIENEDGSSPTAKQSPLSQERPHRFEDDGELNLVYENLHHLFYWDVWFIYNVCLAKVKGYRSLSTSQTFYDAYISYDTKDASVTDWVINELRYHLEESRDKNVLLCLEERDWDPGLAIIDNLMQSINQSKKTVFVLTKKYAKSWNFKTAFYLALQRLMDENMDVIIFILLEPVLQHSQYLRLRQRICKSSILQWPDNPKAEGLFWQTLRNVVLTENDSRYNNMYVDSIKQY
modifications: CER106, amino acids 1-22 are signal peptide
B4: CER105: Chimeric engulfment receptor: Tim4 binding, Tim4 transmembrane, TLR8 and Baff-R signaling; SEQ ID NO: 140 (protein)
chain: MSKGLLLLWLVTELWWLYLTPAASEDTIIGFLGQPVTLPCHYLSWSQSRNSMCWGKGSCPNSKCNAELLRTDGTRIISRKSTKYTLLGKVQFGEVSLTISNTNRGDSGVYCCRIEVPGWFNDVKKNVRLELRRATTTKKPTTTTRPTTTPYVTTTTPELLPTTVMTTSVLPTTTPPQTLATTAFSTAVTTCPSTTPGSFSQETTKGSAFTTESETLPASNHSQRSMMTISTDIAVLRPTGSNPGILPSTSQLTTQKTTLTTSESLQKTTKSHQINSRQTILIIACCVGFVLMVLLFLAFLHHLFYWDVWFIYNVCLAKVKGYRSLSTSQTFYDAYISYDTKDASVTDWVINELRYHLEESRDKNVLLCLEERDWDPGLAIIDNLMQSINQSKKTVFVLTKKYAKSWNFKTAFYLALQRLMDENMDVIIFILLEPVLQHSQYLRLRQRICKSSILQWPDNPKAEGLFWQTLRNVVLTENDSRYNNMYVDSIKQYSWRRRQRRLRGASSAEAPDGDKDAPEPLDKVIILSPGISDATAPAWPPPGEDPGTTPPGHSVPVPATELGSTELVTTKTAGPEQQ
modifications: CER105, amino acids 1-22 are signal peptide

Each molecule was assayed on SCC152 cells (assay: Elimination of GFP-expressing SCC152 target cells over time (quantification and time lapse imaging)). Details: 96-well co-culture, CD8+/E7 TCR + CD4+/CER + SCC152 1:1:1, compared to control.
Format: cell-based
Method: Target SCC152 cells were co-cultured with CD8+ T cells transduced with HPV E7 TCR+CD4+ T cells transduced with a selected CER, or controls (CD8+ T cell transduced with HPV E7 TCR+CD4+ transduced control) at a 1:1:1 ratio. The number of target cells were quantified using imaging software. 0 hours, 24 hours, and 48 hours are shown from left to right.
(§1) FIG. 21 is time lapse imaging from 96-well co-culture experiments comprising CD8+ T cells transduced with HPV16 E7 TCR+CD4+ T cells transduced with CER5, CER17 or CER19 incubated with SCC152 target cells at a 1:1:1 ratio. SCC152 HPV+ target cells were quantified using automated cell counting software.
as §1, with “22” for “21”, “CER21, CER23” for “CER5, CER17”, “CER26” for “CER19”
as §1, with “23” for “21”, “CER103b, CER104” for “CER5, CER17”, “CER105” for “CER19”
as §1, with “24” for “21”, “CER106, CER116” for “CER5, CER17”, “CER27” for “CER19”
FIG. 57 is a bar graph showing quantification of loss of SCC152 HPV16+ target cells over time during co-culture assays. SCC152 cells were transduced with green fluorescent protein (GFP) and co-cultured with CD8+ T cells transduced with HPV16 E7 TCR and CD4+ T cells transduced with a selected CER (CER29, CER30, CER110, CER112, CER113, CER114, CER116, or CER117) or a CD4+ T cell control at a 1:1:1 ratio (CD8:CD4:target cell). The number of target cells was quantified at various time points during co-culture (0 hrs, 12 hrs, 24 hrs, and 36 hrs) using fluorescence microscopy and imaging software.
(§2) FIG. 58 are fluorescence micrograph images of the co-culture assay described in FIG. 57, showing clearance of the SCC152 cells (pink) as co-culture with CD8+ T cells transduced with HPV16 E7 TCR and CD4+ T cells transduced with a selected CER (columns from left to right: control, CER29, CER30, CER110, or CER112) progresses (rows from top to bottom: 0 hrs, 12 hrs, 24 hrs, and 36 hrs).
as §2, with “59” for “58”, “CER113, CER114, CER116,” for “CER29, CER30, CER110,”, “CER117)” for “CER112)”
(§3) Elimination of target SCC152 cells was also detected by quantifying green fluorescent protein expression by SCC152 cells over time (0 hr, 24 hr, 48 hr) during co-incubation with CD8+ T cells transduced with HPV16 E7 specific TCR+ CD4 T cells transduced with selected CER (see, FIG. 20).
as §3, with “hr, 12 hr,” for “hr,”, “hr, 36” for “hr, 48”, “TCR+ CD4+” for “TCR+ CD4”, “CER (CER29, CER30, CER110, CER112, CER113, CER114, CER116, or CER117)” for “CER”, “FIG. 57).” for “FIG. 20).”

Molecule	number of SCC152 cells in time lapse imaging
B1	decreasing in numbers over time
B2	decreasing in numbers over time
B3	decreasing in numbers over time
B4	decreasing in numbers over time
